Reference: patent US20160038571A1
One block for each molecule: values may come before it.

Tests used:
[1] = biological target: calcineurin (CNA/B) (UniProt Q08209); experiment: ITC
[2] = biological target: pre-formed RCAN1^128-164:calcineurin complex, Q08209; experiment: ITC, peptide titrated into the pre-formed RCAN1^128-164:calcineurin complex

- fold decrease in Kd (against unmutated RCAN1) [1]: 2.5 fold
Molecule: RCAN1 mutant HLAPP (SEQ ID NO: 16) →AAAAA (SEQ ID NO: 17) (from UniProt P53805 56-252)

- fold decrease in Kd (against unmutated RCAN1) [1]: 220 fold
Molecule: RCAN1 mutant PSVVVH (SEQ ID NO: 13) →ASAVAA (SEQ ID NO: 18) (from UniProt P53805 56-252)

- Kd [2]: 15000 nM
B1: peptide consisting of RCAN1^178-192 that includes the TxxP (SEQ ID NO: 11) site (peptide)
peptide: RPKPKIIQTRRPEYT
modifications: not checked

The next lines start with the molecule.

Molecule: RCAN1 construct with the PxIxIT (SEQ ID NO: 9) motif deleted
- fold decrease in binding affinity [1]: 220 fold

Molecule: RCAN1^89-197 (from UniProt O35847 89-142)
- Kd [1]: 10 nM

Molecule: RCAN1^128-192 (from UniProt P53805 183-247)
- Kd [1]: 300 nM
